Read-outs that look alike come from different tables or passages of the source.
Legend:
[1] = target: Helicobacter pylori CCUG 17874 type II L-asparaginase T16D mutant (Helicobacter pylori CCUG 17874); assay: SEC; analytical gel filtration of the purified mutant; data not shown; conditions not given
[2] = target: Helicobacter pylori CCUG 17874 type II L-asparaginase T95E mutant (Helicobacter pylori CCUG 17874); assay: as above
[3] = target: T1, HpASNase (Helicobacter pylori CCUG 17874 type II L-asparaginase) (Helicobacter pylori, UniProt O25424); assay: glutamate dehydrogenase-coupled NADH assay, […] nm; assay type: biochemical; conditions: 50 mM HEPES pH 7.5, 37°C
T1 construct: gene ansA; recombinant, E. coli BL21(DE3) pLysS, plasmid pDC1 (pET101 D-TOPO derivative), His-tag kept (given as N-terminal), 37 kDa band, tetramer
T1 sequence (O25424 whole entry): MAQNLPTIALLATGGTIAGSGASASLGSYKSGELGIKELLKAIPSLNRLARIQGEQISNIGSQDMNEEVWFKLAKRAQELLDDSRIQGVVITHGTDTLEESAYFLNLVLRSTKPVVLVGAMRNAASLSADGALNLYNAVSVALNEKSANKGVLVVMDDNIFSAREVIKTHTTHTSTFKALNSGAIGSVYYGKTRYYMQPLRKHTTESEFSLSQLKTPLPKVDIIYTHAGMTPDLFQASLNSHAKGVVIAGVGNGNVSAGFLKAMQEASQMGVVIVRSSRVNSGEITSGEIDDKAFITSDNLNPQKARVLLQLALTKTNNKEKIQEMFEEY

Helicobacter pylori CCUG 17874 type II L-asparaginase T16D mutant (enzyme)
stoichiometry N [1]: 4

Helicobacter pylori CCUG 17874 type II L-asparaginase T95E mutant (enzyme)
stoichiometry N [2]: 4

NC(=O)C[C@H](N)C(=O)O [L-asparagine]
Km ([3]; read-out: L-asparagine / S0.5, nH 1.0): 0.29 ± 0.03 mM

NC(=O)CC[C@H](N)C(=O)O [L-glutamine]
Km ([3]; read-out: L-glutamine / S0.5, nH 2.0): 46.4 ± 4.02 mM
